Tested on: Saccharomyces cerevisiae
Test: transcriptional activation domain activity (GFP:mCherry ratio, weighted mean of sorted bins, harmonized to initial dataset scale) (arbitrary fluorescence ratio units); higher = stronger transcriptional activation
Settings: beta-estradiol 1 µM; induction time 4 h
Method in brief: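 Values are activation activity, found as the read-weighted mean of bin median fluorescence, averaged across barcodes and then mapped linearly onto the initial dataset scale. Barcoded protein tiles fused to an estradiol-inducible synthetic transcription factor were integrated at the URA3 locus of GFP-reporter yeast diploids. Cells were induced for 4 hours at 30 °C with 1 uM beta-estradiol in SC, sorted into 8 bins by GFP:mCherry ratio, and barcode-sequenced, with tiles under 50 reads discarded.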

Sequence | transcriptional activation domain activity
GASAFGSAAQLGQKSSPWGSATSAVPSTGGAVFGSSGFGNAAPSAAPAFGKPS | 33200
VQGTTHGRILIQAGKEIWTQELLLPYVYFILTLNPTIHTWERIKKITGYVFRA | 64200
NANVKLCVDGKWDKMCLMCTGDGTSSGVWRLCERILGSARCVIESIGCWVVLC | 60600
KKPPARLLAKKAPAAAAGGEEGSSKSAAKPAAPPVKKVVPAAAAAKPAKGGAP | 28400
FGSWGRGLCPLVFREAGWLELWGCVCVGGTLVWCLPYGILPMSYWRIWGLLRW | 74600
EDEEESSKEETEKQRNKLRELIYEFIAKDVASRVELAKYWLSEEWNCAVGPQT | 35300
PTASTIYEEAESQSSYLDDMFRTSQGGRPVTQNSISSIGQGPLRSSYSMAYDS | 51300
MCAASSEGASLSPASSLQRGKACLACRRRKMRCDGARPTCGQCVRGNRVDDCE | 21200
ADRLIRILRILMFNWKFWNTGCFATYDPNSNLVRLEIPCSRDLLGTKPGTYYY | 50200
IWCRKCNLGSILYVLARYGTLNCLLVSSLSLVTGFVVNMIFHIILGLLLARAY | 65100
AGALLDLYLRRNRCYVSNGYLGCSVLYLSTSLVVSCFLSWVTATILIILDIKR | 83600
FFCSLFVSPVTLFFIFYSYCKRSFAISLLLMITIYWSFLLGLTASILVYRIWL | 57500
MLFARLHPVADETLIPFFCFWPSRLFVVLLVSFLHLIILFLSCFFFNCFLLFF | 50300
FSIVACVVGCQDSEWGLQFSHERCFTLHTLGHLSQFEKIVVVLIACKLLLFSK | 65200
EDEASQPAKPRARPAPSRAQNRSKEKSSKTARKRKDKSPPASQQEPEQDEGSE | 18600
MWGVLCNWLKHNGMVFSVQCFTFDFLFSFPLSLFFPFFLFSFFLFFLYSFAII | 50100
PLEKLMCLRTSLSLLSAAADKYMQENRLTVFHTSVASDDLILLLACALTQTHL | 50200
FQNISNTILDISLSHGKVPNMDQLTRELFGASDSYQDILDENNVDVSWVDKLV | 103000
MFLYISLIFTLYYSTFPPPPPHPTSYLAIFLFLKLPWLFFSFSTSFSFTFFFW | 58400
MEGMQVEQDIARGSRKPHRKSRLGCGNCKQRRVKCDERKPSCDRCVKHNILCD | 23800
DMLISFGLDHPSNREDDLDKLCNMTRDVQAIFSQYLKGEESKRSLEDFLSTSN | 67500

Sequence | transcriptional activation domain activity
MRGFFWQILLQTCLLPIVTCTLLPTPLMPFCALQHTPLSNLFLLLSWLYFLPY | 48400
HMESDEEKERKPKKARKQKAEGSGDEAEPKKKRRGKLKRGGGDHEEAAVAAGE | 39200
IQAEGLYDCRYSSYGIELLRYAFYFGMFLFLLRSGWYITSSVFLGTLWHQLSF | 21100
LVGLIGTLVAEPGLGADRFLLCFLFLSYYTLLTPSNLLVGIFWLVFFVLQLGY | 39700
APATTAAATTSATPAVTSTLLAKPATTTTSTATPAPAAAGSLFGGAKAAGTTA | 37000
MVSTRRQERDKEKKEKRKEEKEKEKGEGKTEKKKKKKSGDKKSKKGEGRTKEG | 21200
VSDYSMAQFRFLLKFLLVHGRWNYVRICKYTVGTFWKELLFYLTQALFQRSNG | 46600
MLSSKLNGRSQFICHLCHTGSLLTSVTLIFPFHHTYLHFLGWNLTLLTTVWFF | 60600
TDEAESKKAEEVPKTAEEAKPEESKAEETAMADETPKTEEAKPEDVKVEAHKE | 19400
MMMGTIVKSFFLFTFTFSIFFFYFFPRVLFTPFFFYILDLSLFFIVVLIFFSF | 54300
FAGAFKHFQRLGPVSQWDLLAKLPLIVFWILFTCCSLHFYLLFLFLFFIRWVS | 55200
KFYARILKLLLLLNHILIIAGVNESPYSKDKVIRYLFNMFRLWTTKRSAKENQ | 62000
VVLPCLNLVLAVRKYFVRYLMMPRYSTLQVFGEENAAGYRPMLFWEIEPWYVA | 41800
MLLGCRKRYSAHPFNDFLSFFIFYSSLFFYSLLSPFPFPPHSTPVTSFFILFY | 53700
IIALLLRFYDPSSGKVLVGPDDLRNLNVRSLRSHIALVTQSPVLFSGTILDNI | 42100
FGHVINEFVLSTFLTDQCHKIPQDTVNAYFEDCSTISTSQILMLLYILTFNDY | 60700
MLRTWVLLLLVGLLGVFVRADDEPASEEPKSGGLSLSRLSQLVTSGVTGARPP | 39300
LFLFYACVNMIFWRVFMRISYSCPAHLKFFLTVEKWTELVKMTADAIDWLDAH | 47800
WLRVRKFTVTLATFVEPGTESILCGLYGAYALTTLPFFHNIGISSTWTSFFLI | 36600
KPTNQTEFDWQVFQQQAFLQQQLAQHNLQAYLSSLNTDTMTNRSPSKSSSIST | 66300
DPYDWSTYSNLIDEERIFVPEVQSSDHINDKFLTVANVTGEGSEGLIMQWLSC | 133000

Sequence | transcriptional activation domain activity
QSQPAKQPAKQPATKKSSKSKGSKKSKGSKGKGSRGSKSKAKGSRSKAKGKAH | 23600
HLLILRFVAHFSHLGLGCSSYSLMFYVLSYLLYISLLSNIISLYPPSCLYLAH | 45400
NVSPGTTDAGPWMRAIEELAGTGVYEHLGYGWKGWLFWLRDRSFCNMLMTGIW | 54200
IMLVLNWLAVHGLFLVKKKSEKSVYHALHKMPTPPFSDSLRQQCRDRLLACLA | 36700
SKGNSINTFLEQVTFQVVPMLIDLCVAIGYFLVAFDAYYALVVAIVTFCYLYV | 44100
PLNMLHLGTWYLDGFQPFEHLRANKELWNLLVRGQTEILSLPRFGWTGWLLSF | 46900
WWMYLPLLLLLVLMFAPHYSILVLLVSYYLNIHDSPFLFSLHLFVIYLITFLA | 58200
WRHLFLGQLPLLMSEPFTNSTPIIDPLLNNDFELIDFEVNLMKYLQSKDQQLS | 117000
GGKRKGEQGHGAGQRGKGDGQGRGGRGRGRGEGGEEKGRRAERKEERGRRGRS | 16300
LQQTKRQHSAPSQISANENNIYNLGTLEEFVSSGDLTDLYHTLWNDNTSYPFL | 128000
TGNSVWAFHALLSKGYFHMLCKDIDINPERVLATLMLVLSHIFERQLCKHSDI | 48500
SFLYWGSAGLFGIYVMSFQDSWWYQMEHLWVKYPHWMMRSELKVYYLLQFSYW | 21600
MRELFIFILFLFHFYPYSYFNYYIFFSFSYFLFRYFVSIIIIFFLIQVVFGLV | 101000
MVTISTDWFGWFVYLRFSGHLGVNCFYFIIRFFLFWVAFQLHVCIFSLPLVSC | 51400
GLVYMIGVYSISGLDRTLQMIHAILHVNFNSLVHKKGITHSCLLWLILIFFGL | 48000
CLILVFADSWLFLTFTGVLLHGVGIELNKFTCSLGIFSCILLYTSSKVLIYFF | 42800
AFRWIAAFYGLTLATHFTGTVILVSHIAHHVVQAKCILGHRGGPYFYIMRVLV | 61400
ISLVYGVRLAIRSSIFVTVRTHLARSIRYQSGLRAKQPIPTRLFLLYFLQLKY | 56900
AGQLGYDPVFGICWYNNSDPAMKLRWMLGSQLFWLLFMSTSEVVFFLVLVCFM | 43500
DKKNVDINEFLLDESVSNLFTTRQIDLFKKNVNLYSPLFQNQKDAVSSTSLTP | 81800
MSASPPTGSGGTDERQRQRVTRACEPCRRKKIRCDGRKPCSACADAQAGNGCA | 34300

Sequence | transcriptional activation domain activity
METTVSGQSSQPPAANDDQEPTKKRKRDKYVGKACGPCKRRKIRCGGGVPCES | 36300
MLRDYWLILIVNCQTIGCKLPIVMWSPLCLFLTLNHGLLWLWMCLALRFFSLF | 35000
MGTTGWRTRAIPYGFVFFYFILVMSLFFSSPLLTTTAVFILFYLLFLFSCYSS | 36000
RDNESYSATNNNNLLRPDDNDYNNEALSDIDRSFEDIINGRKLKLKKSRRRSS | 15300
QIDQNGDPLAKYVRNKVRTTKYTIISILPKDLFEQFRNVIFFLVLVIFQNFPF | 56900
HTQENEKVMWNIGSWNAPSLTNSWDSPPGNRTGAVTIGDESINGSEMPDFSLD | 36100
MPLPPGISYILKRAPSLLLPGVITYFASKYVVNYCRLTLPRWILCALVLLAKP | 86300
KGKAAKSGWDDDEDEKKKEEGEGEGGDGGDKSGDIGAGGDGDKKDEASGNADG | 27500
NCSFIFLMLNCILAAFCFYNLSSIMNGLVYFDQFSLIPPLHLGLVTLGMCVLL | 46400
MGVLFFSFLPWSFRLFFSFFFYFGLFFFFEYDFVLFLVFCVLVIGPVWLLAGC | 60200
ETAKIDIEKQSNGETDISVLRNHAPGTAPTEEENLEKNMAPLRKLIRLLLLNT | 39100
VKFRFLTYSRWLVLILYVFSWSFTIISMLLVTTNNANFTSCFLSIMVCDIFYS | 71700
GDEKLAKGRGDEKPAKGKGKEKKAKAKGKKAKGEKKAEDKENAVKESLENAVK | 32800
MALNLFQKEIFLILFLLFYYFAILLFCYFIILLFCYLIFLFFLFHLSLSSLIF | 26300
EHFAGNNHVNRVVNFVQSCFTFYAPKMCKYYTEILQALFSQPTWWMVCCCGFW | 46200
RSLQLSWSILLRFFKEHFCMDRLSLTIVDLGTLGSPLIRSERNGYLRRFFQVF | 46700
MVDSRMLGETETGLFLSFIFFRIIFILVLPYLASCSKYVHLLFLYCFLLLRFF | 54600
MVIQKYMFLYFLFCILIFLCIQDLDQDKYNDSLWCSRPFYCHNLFIIILAFIH | 51800
MWWALCFFFFLFIFVILGFVGLLVCWFVGWLAGTFVGFSGSWFSFWVAWVVWV | 60500
MKFLFILCCHILPYVPIFYLMSLSSIFLHFTLLFIYLITLFYTFAYIFIFSFY | 50400
